Laboratory results published in paper PMC9135701.

Target: spGFP_(1-10/11)-MSP1D1
Assay: SEC; purified scaffold protein without lipids; Superose 6 Increase 10/300 GL, 50 mM Tris-HCl pH 8, 100 mM NaCl, 5% glycerol; monomer (intramolecular complementation) against dimer (intermolecular complementation)

- percent dimeric: 30%
- stoichiometry N: 2
Substance: spGFP_(1-10/11)-MSP1D1
